We go through 17 molecules from patent US20230272055A1 (Incyte, published 2023).

B1: anti-mutCALR antibody clone 128 (antibody, human IgG1, lambda, N297A, V domains shown)
VH: EVQLVQSGAEVKKPGASVKVSCKVSGYTLTELSMQWVRQAPGKGLEWMGGFDPDDAETMYAEKFQGRLTVTEDTSTDTVYMELRSLTSEDTALYFCATSPGYDFFDYWGQGTLVTVSS
VL: SYELTQPPSVSVAPGKTARITCGGDNIGSKSVHWYQQKPGQAPVLVVYDDSDRPSGIPERFSGSNSGNTATLTINRVEAGDEADYYCQVWDSSNDLLIFGGGTKLTVLG
notes: human IgG1 N297A variant of clone 15
B2: anti-mutCALR antibody clone 143 (antibody, human IgG1, lambda, N297A, V domains shown)
VH: EVQLVQSGAEVKKPGASVKVSCKVSGYTLTELSMQWVRQAPGKGLEWMGGFDPDDAETMYAEKFQGRLTVTEDTSTDTVYMELSSLRSEDTAVYFCATSPGYDFFDYWGQGTLVTVSS
VL: SYVLTQPPSVSVAPGKTARITCGGDNIGSKSVHWYQQKPGQAPVLVVYDDSDRPSGIPERFSGSNSGNTATLTISRVEAGDEADYYCQVWDSSNDLLIFGGGTKLTVLG
notes: as for B1
B3: anti-mutCALR antibody clone 130 (antibody, human IgG1, lambda, N297A, V domains shown)
VH: EVQLVQSGAEVKKPGASVKVSCKVSGYTLTELSMQWVRQAPGKGLEWMGGFDPDAGETMYAEKFQGRLTVTEDTSTDTVYMELSSLRSEDTAVYFCATSPGYDFFDYWGQGTLVTVSS
VL: SYELTQPPSVSVAPGKTARITCGGDNIGSKSVHWYQQKPGQAPVLVVYDDSDRPSGIPERFSGSNSGNTATLTINRVEAGDEADYYCQVWDSSNDLLIFGGGTKLTVLG
notes: as for B1
B4: anti-mutCALR antibody clone 131 (antibody, human IgG1, lambda, N297A, V domains shown)
VH: EVQLVQSGAEVKKPGASVKVSCKVSGYTLTELSMQWVRQAPGKGLEWMGGFDPDSGETMYAEKFQGRLTVTEDTSTDTVYMELSSLRSEDTAVYFCATSPGYDFFDYWGQGTLVTVSS
VL: SYELTQPPSVSVAPGKTARITCGGDNIGSKSVHWYQQKPGQAPVLVVYDDSDRPSGIPERFSGSNSGNTATLTINRVEAGDEADYYCQVWDSSNDLLIFGGGTKLTVLG
notes: as for B1
B5: anti-mutCALR antibody clone 132 (antibody, human IgG1, lambda, N297A, V domains shown)
VH: EVQLVQSGAEVKKPGASVKVSCKVSGYTLTELSMQWVRQAPGKGLEWMGGFDPDEGETMYAEKFQGRLTVTEDTSTDTVYMELSSLRSEDTAVYFCATSPGYDFFDYWGQGTLVTVSS
VL: SYELTQPPSVSVAPGKTARITCGGDNIGSKSVHWYQQKPGQAPVLVVYDDSDRPSGIPERFSGSNSGNTATLTINRVEAGDEADYYCQVWDSSNDLLIFGGGTKLTVLG
notes: as for B1
B6: anti-mutCALR antibody clone 139 (antibody, human IgG1, lambda, N297A, V domains shown)
VH: EVQLVQSGAEVKKPGASVKVSCKVSGYTLTELSMQWVRQAPGKGLEWMGGFDPDDGETMYAEKFQGRLTVTEDTSTDTVYMELSSLRSEDTAVYFCATSPGYDFFDYWGQGTLVTVSS
VL: SYVLTQPPSVSVAPGKTARITCGGDNIGSKSVHWYQQKPGQAPVLVVYDDSDRPSGIPERFSGSNSGNTATLTISRVEAGDEADYYCQVWDSSNDLLIFGGGTKLTVLG
notes: as for B1
B7: anti-mutCALR antibody clone 133 (antibody, human IgG1, lambda, N297A, V domains shown)
VH: EVQLVQSGAEVKKPGASVKVSCKVSGYTLTELSMQWVRQAPGKGLEWMGGFDPDDAETMYAEKFQGRLTVTEDTSTDTVYMELSSLRSEDTAVYFCATSPGYDFFDYWGQGTLVTVSS
VL: SYELTQPPSVSVAPGKTARITCGGDNIGSKSVHWYQQKPGQAPVLVVYDDSDRPSGIPERFSGSNSGNTATLTINRVEAGDEADYYCQVWDSSNDLLIFGGGTKLTVLG
notes: as for B1
B8: anti-mutCALR antibody clone 134 (antibody, human IgG1, lambda, N297A)
heavy: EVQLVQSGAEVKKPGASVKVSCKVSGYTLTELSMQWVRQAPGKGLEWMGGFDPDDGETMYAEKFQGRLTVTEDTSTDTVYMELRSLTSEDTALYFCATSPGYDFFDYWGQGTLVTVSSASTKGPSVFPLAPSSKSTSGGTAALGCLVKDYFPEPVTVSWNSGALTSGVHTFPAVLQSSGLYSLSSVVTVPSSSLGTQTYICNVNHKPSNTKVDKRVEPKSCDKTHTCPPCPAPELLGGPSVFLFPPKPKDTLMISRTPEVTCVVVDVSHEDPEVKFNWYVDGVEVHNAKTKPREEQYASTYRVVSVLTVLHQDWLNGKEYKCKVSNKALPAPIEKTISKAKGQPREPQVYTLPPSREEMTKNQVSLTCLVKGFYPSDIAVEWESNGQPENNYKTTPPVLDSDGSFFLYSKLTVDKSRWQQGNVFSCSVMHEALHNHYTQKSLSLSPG
light: SYVLTQPPSVSVAPGKTARITCGGDNIGSKSVHWYQQKPGQAPVLVVYDDSDRPSGIPERFSGSNSGNTATLTISRVEAGDEADYYCQVWDSSNDLLIFGGGTKLTVLGQPKAAPSVTLFPPSSEELQANKATLVCLISDFYPGAVTVAWKADSSPVKAGVETTTPSKQSNNKYAASSYLSLTPEQWKSHRSYSCQVTHEGSTVEKTVAPTECS
notes: as for B1
B9: anti-mutCALR antibody clone 137 (antibody, human IgG1, lambda, N297A, V domains shown)
VH: EVQLVQSGAEVKKPGASVKVSCKVSGYTLTELSMQWVRQAPGKGLEWMGGFDPDEGETMYAEKFQGRLTVTEDTSTDTVYMELRSLTSEDTALYFCATSPGYDFFDYWGQGTLVTVSS
VL: SYVLTQPPSVSVAPGKTARITCGGDNIGSKSVHWYQQKPGQAPVLVVYDDSDRPSGIPERFSGSNSGNTATLTISRVEAGDEADYYCQVWDSSNDLLIFGGGTKLTVLG
notes: as for B1
B10: anti-mutCALR antibody clone 129 (antibody, human IgG1, lambda, N297A, V domains shown)
VH: EVQLVQSGAEVKKPGASVKVSCKVSGYTLTELSMQWVRQAPGKGLEWMGGFDPDDGETMYAEKFQGRLTVTEDTSTDTVYMELSSLRSEDTAVYFCATSPGYDFFDYWGQGTLVTVSS
VL: SYELTQPPSVSVAPGKTARITCGGDNIGSKSVHWYQQKPGQAPVLVVYDDSDRPSGIPERFSGSNSGNTATLTINRVEAGDEADYYCQVWDSSNDLLIFGGGTKLTVLG
notes: as for B1
B11: anti-mutCALR antibody clone 135 (antibody, human IgG1, lambda, N297A, V domains shown)
VH: EVQLVQSGAEVKKPGASVKVSCKVSGYTLTELSMQWVRQAPGKGLEWMGGFDPDAGETMYAEKFQGRLTVTEDTSTDTVYMELRSLTSEDTALYFCATSPGYDFFDYWGQGTLVTVSS
VL: SYVLTQPPSVSVAPGKTARITCGGDNIGSKSVHWYQQKPGQAPVLVVYDDSDRPSGIPERFSGSNSGNTATLTISRVEAGDEADYYCQVWDSSNDLLIFGGGTKLTVLG
notes: as for B1
B12: anti-mutCALR antibody clone 141 (antibody, human IgG1, lambda, N297A, V domains shown)
VH: EVQLVQSGAEVKKPGASVKVSCKVSGYTLTELSMQWVRQAPGKGLEWMGGFDPDSGETMYAEKFQGRLTVTEDTSTDTVYMELSSLRSEDTAVYFCATSPGYDFFDYWGQGTLVTVSS
VL: SYVLTQPPSVSVAPGKTARITCGGDNIGSKSVHWYQQKPGQAPVLVVYDDSDRPSGIPERFSGSNSGNTATLTISRVEAGDEADYYCQVWDSSNDLLIFGGGTKLTVLG
notes: as for B1
B13: anti-mutCALR antibody clone 142 (antibody, human IgG1, lambda, N297A, V domains shown)
VH: EVQLVQSGAEVKKPGASVKVSCKVSGYTLTELSMQWVRQAPGKGLEWMGGFDPDEGETMYAEKFQGRLTVTEDTSTDTVYMELSSLRSEDTAVYFCATSPGYDFFDYWGQGTLVTVSS
VL: SYVLTQPPSVSVAPGKTARITCGGDNIGSKSVHWYQQKPGQAPVLVVYDDSDRPSGIPERFSGSNSGNTATLTISRVEAGDEADYYCQVWDSSNDLLIFGGGTKLTVLG
notes: as for B1
B14: anti-mutCALR antibody clone 170 (antibody, human IgG1, lambda, N297A)
heavy: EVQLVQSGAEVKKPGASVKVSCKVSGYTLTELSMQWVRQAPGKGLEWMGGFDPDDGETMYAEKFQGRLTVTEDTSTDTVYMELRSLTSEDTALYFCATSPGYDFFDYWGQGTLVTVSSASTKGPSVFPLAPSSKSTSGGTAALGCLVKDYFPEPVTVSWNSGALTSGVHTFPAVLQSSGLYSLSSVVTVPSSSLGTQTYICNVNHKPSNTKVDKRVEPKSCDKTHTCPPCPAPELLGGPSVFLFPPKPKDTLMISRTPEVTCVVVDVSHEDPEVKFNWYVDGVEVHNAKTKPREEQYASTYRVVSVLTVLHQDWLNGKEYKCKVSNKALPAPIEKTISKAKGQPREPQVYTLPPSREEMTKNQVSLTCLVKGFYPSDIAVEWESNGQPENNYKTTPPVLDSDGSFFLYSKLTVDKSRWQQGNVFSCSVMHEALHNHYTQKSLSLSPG
light: SYVLTQPPSVSVAPGQTARITCGGSDIGDEIVHWYQQKPGQAPVLVVYDDSDRPSGIPERFSGSNSGNTATLTISRAQAGDEADYYCQVWDSSSDHLIFGGGTKLTVLGQPKAAPSVTLFPPSSEELQANKATLVCLISDFYPGAVTVAWKADSSPVKAGVETTTPSKQSNNKYAASSYLSLTPEQWKSHRSYSCQVTHEGSTVEKTVAPTECS
notes: human IgG1 N297A variant of clone 17
B15: anti-mutCALR antibody clone 140 (antibody, human IgG1, lambda, N297A, V domains shown)
VH: EVQLVQSGAEVKKPGASVKVSCKVSGYTLTELSMQWVRQAPGKGLEWMGGFDPDAGETMYAEKFQGRLTVTEDTSTDTVYMELSSLRSEDTAVYFCATSPGYDFFDYWGQGTLVTVSS
VL: SYVLTQPPSVSVAPGKTARITCGGDNIGSKSVHWYQQKPGQAPVLVVYDDSDRPSGIPERFSGSNSGNTATLTISRVEAGDEADYYCQVWDSSNDLLIFGGGTKLTVLG
notes: as for B1
B16: anti-mutCALR antibody clone 138 (antibody, human IgG1, lambda, N297A, V domains shown)
VH: EVQLVQSGAEVKKPGASVKVSCKVSGYTLTELSMQWVRQAPGKGLEWMGGFDPDDAETMYAEKFQGRLTVTEDTSTDTVYMELRSLTSEDTALYFCATSPGYDFFDYWGQGTLVTVSS
VL: SYVLTQPPSVSVAPGKTARITCGGDNIGSKSVHWYQQKPGQAPVLVVYDDSDRPSGIPERFSGSNSGNTATLTISRVEAGDEADYYCQVWDSSNDLLIFGGGTKLTVLG
notes: as for B1
B17: anti-mutCALR antibody clone 136 (antibody, human IgG1, lambda, N297A, V domains shown)
VH: EVQLVQSGAEVKKPGASVKVSCKVSGYTLTELSMQWVRQAPGKGLEWMGGFDPDSGETMYAEKFQGRLTVTEDTSTDTVYMELRSLTSEDTALYFCATSPGYDFFDYWGQGTLVTVSS
VL: SYVLTQPPSVSVAPGKTARITCGGDNIGSKSVHWYQQKPGQAPVLVVYDDSDRPSGIPERFSGSNSGNTATLTISRVEAGDEADYYCQVWDSSNDLLIFGGGTKLTVLG
notes: as for B1

In this assay the target is T1, Recombinant MBP-mutCALR Type 1 fusion protein (human).
T1 construct: custom made at Cepter; also called recombinant mutCALR protein
Description: SPR, IgG captured, 1:1 fit, Exp. 2. The method, then:
Experiment 2: Recombinant MBP-mutCALR Type 1 fusion protein was custom made at Cepter (cepterbiopartners.com). Data for the interaction of antibodies with recombinant mutCALR protein were collected at 25° C. on a Biacore 8K instrument (Cytiva, Marlborough, Mass.), and all reagents were obtained from Cytiva unless otherwise specified. The experiments were conducted using Tris-buffered saline (pH 7.2), 0.005% Surfactant P20, 1 mM CaCl₂) as running buffer. To prepare the capture surfaces, anti-human IgG (Fc) antibodies (Product #29234600) was amine-coupled onto a CM4 chip (Product #BR100534) under standard conditions using an Amine Coupling Kit (Product #BR100050). […] The kinetics parameters were obtained by applying 1:1 binding model to fit the data from multiple-cycle injection experiments using Biacore Insight Evaluation software.
In general, Kd refers to the concentration at which binding is half-saturated. As a reminder, the koff is a measure of how fast the partners let go of each other. One may read the kon as the rate constant with which the complex forms. For the molecule B1, the Kd amounted to 1.61 nM, the koff amounted to 0.00207 s⁻¹ and the on-rate (kon) worked out at 1.29e+06 M⁻¹ s⁻¹.

With B2, the Kd is 1.31 nM, the off-rate (koff) worked out at 0.00753 s⁻¹ and the kon was 5.74e+06 M⁻¹ s⁻¹.

B3: the Kd came out at 4.71 nM, the dissociation rate constant (koff) is 0.00509 s⁻¹ and the on-rate (kon) is 1.08e+06 M⁻¹ s⁻¹.

In the case of B4, the Kd came to 4.83 nM, the koff was found to be 0.00481 s⁻¹ and the kon worked out at 996000 M⁻¹ s⁻¹.

Regarding B5, the dissociation constant Kd came to 2.16 nM, the koff worked out at 0.00244 s⁻¹ and the kon came out at 1.13e+06 M⁻¹ s⁻¹.

Consider B6, for which the equilibrium dissociation constant (Kd) came out at 0.966 nM, the koff was 0.000953 s⁻¹ and the association rate constant (kon) is 987000 M⁻¹ s⁻¹.

With B7, the equilibrium dissociation constant (Kd) was determined as 0.826 nM, the koff was 0.00702 s⁻¹ and the kon worked out at 8.51e+06 M⁻¹ s⁻¹.

On to B8, for which the Kd worked out at 1.12 nM, the koff amounted to 0.00142 s⁻¹ and the kon was determined as 1.27e+06 M⁻¹ s⁻¹.

Regarding B9, the Kd worked out at 1.27 nM, the off-rate constant (koff) is 0.0095 s⁻¹ and the on-rate (kon) is 7.51e+06 M⁻¹ s⁻¹.

As for B10, the Kd came to 0.53 nM, the koff was 0.00527 s⁻¹ and the kon was found to be 9.94e+06 M⁻¹ s⁻¹.

Turning to B11, the Kd worked out at 5.17 nM, the dissociation rate constant (koff) was found to be 0.00512 s⁻¹ and the kon is 991000 M⁻¹ s⁻¹.

Regarding B12, the equilibrium dissociation constant (Kd) is 4.47 nM, the koff was determined as 0.0187 s⁻¹ and the kon was found to be 4.18e+06 M⁻¹ s⁻¹.

Regarding B13, the Kd is 2.27 nM, the dissociation rate constant (koff) turned out to be 0.00269 s⁻¹ and the kon came to 1.19e+06 M⁻¹ s⁻¹.

With B14, the Kd was found to be 0.419 nM, the koff turned out to be 0.00179 s⁻¹ and the kon was 4.27e+06 M⁻¹ s⁻¹.

As for B15, the Kd amounted to 7.09 nM, the koff turned out to be 0.00541 s⁻¹ and the kon is 763000 M⁻¹ s⁻¹.

On to B16, for which the dissociation constant Kd came out at 0.875 nM, the koff is 0.00688 s⁻¹ and the on-rate constant (kon) turned out to be 7.86e+06 M⁻¹ s⁻¹.

Consider B17, for which the dissociation constant Kd is 6.7 nM, the koff came to 0.00507 s⁻¹ and the kon was determined as 756000 M⁻¹ s⁻¹.
